Measured values as given in patent US20230287109A1 (INGENIA THERAPEUTICS, published 2023).
Each block holds one binder with its values, some of them ahead of it.

Target: T1, rabbit Tie2 (form not stated) (rabbit)
T1 construct: also called rabbit ortholog of Tie-2
Assay: SPR, summary table, column Rabbit Tie2, Kd [M]

Kd: < 0.127 nM
B1: PRO593, PEGylated with two 20 kDa linear PEG (Fc fusion)
heavy: EVQLVQSGAEVKKPGASVKVSCKASGYSFTSYWMNWVRQAPGQGLEWMGMIHPSDSETRLNQKFMDRVTMTRDTSTSTVYMELSSLRSEDTAVYYCARGLYGNSWGQGTLVTVSSASTKGPSVFPLAPSSKSTSGGTAALGCLVKDYFPEPVTVSWNSGALTSGVHTFPAVLQSSGLYSLSSVVTVPSSSLGTQTYICNVNHKPSNTKVDKKVEPKSSDKTHTSPPSPAPEAAGGPSVFLFPPKPKDTLMISRTPEVTCVVVDVSHEDPEVKFNWYVDGVEVHNAKTKPREEQYNSTYRVVSVLTVLAQDWLNGKEYKCKVSNKALPAPIEKTISKAKGQPREPQVYTLPPSRDELTKNQVSLTCLVKGFYPSDIAVEWESNGQPENNYKTTPPVLDSDGSFFLYSKLTVDKSRWQQGNVFSCSVMHEALHNHYTQKSLSLSPGKGGGGSGGGGSGGGGSGGGGSSDTGRPFVEMYSEIPEIIHMTEGRELVIPCRVTSPNITVTLKKFPLDTLIPDGKRIIWDSRKGFIISNATYKEIGLLTCEATVNGHLYKTNYLTHRQTNTIIDVVLSPSHGIELSVGEKLVLNCTARTELNVGIDFNWEYPSSKHQHKKLVNRDLKTQSGSEMKKFLSTLTIDGVTRSDQGLYTCAASSGLMTKKNSTFVRVHEKGGSSKCA
light: DIQMTQSPSSLSASVGDRVTITCRASQDIGISLNWYQQEPGKAIKRLIYATSSLDSGVPKRFSGSRSGTEYTLTISSLESEDFADYYCLQYASSPYTFGGGTKLEIKRTVAAPSVFIFPPSDEQLKSGTASVVCLLNNFYPREAKVQWKVDNALQSGNSQESVTEQDSKDSTYSLSSTLTLSKADYEKHKVYACEVTHQGLSSPVTKSFNRGES
modifications: chain 1 pos 676: Cys carrying 20 kDa linear PEG-maleimide, written C (two PEG per antibody, one on each heavy chain).
notes: All interchain disulfide bonds removed

Kd: < 0.13 nM
B2: PRO593, PEGylated with two 40 kDa branched PEG (Fc fusion)
heavy: B1 heavy
light: B1 light
modifications: chain 1 pos 676: Cys carrying 40 kDa branched PEG-maleimide, written C (one PEG per heavy chain, two per antibody)
